Source: patent US20140275490A1

What was measured:
human IL-23R (human) = human IL-23R (human) (UniProt Q5VWK5); assay: cell-based or functional assay
[1] = target: human IL-23R-mouse Fc fusion protein (human; mouse) (UniProt Q5VWK5); assay: antigen ELISA, human IL-23R-Fc immobilized, HRP anti-human IgG, chemiluminescence
[2] = target: monkey IL-23R-mouse Fc fusion protein (monkey; mouse); assay: antigen ELISA, monkey IL-23R-Fc immobilized, HRP anti-human IgG, chemiluminescence

Chain of human IL-23R (human) (Q5VWK5 24-629 L310P limits assumed): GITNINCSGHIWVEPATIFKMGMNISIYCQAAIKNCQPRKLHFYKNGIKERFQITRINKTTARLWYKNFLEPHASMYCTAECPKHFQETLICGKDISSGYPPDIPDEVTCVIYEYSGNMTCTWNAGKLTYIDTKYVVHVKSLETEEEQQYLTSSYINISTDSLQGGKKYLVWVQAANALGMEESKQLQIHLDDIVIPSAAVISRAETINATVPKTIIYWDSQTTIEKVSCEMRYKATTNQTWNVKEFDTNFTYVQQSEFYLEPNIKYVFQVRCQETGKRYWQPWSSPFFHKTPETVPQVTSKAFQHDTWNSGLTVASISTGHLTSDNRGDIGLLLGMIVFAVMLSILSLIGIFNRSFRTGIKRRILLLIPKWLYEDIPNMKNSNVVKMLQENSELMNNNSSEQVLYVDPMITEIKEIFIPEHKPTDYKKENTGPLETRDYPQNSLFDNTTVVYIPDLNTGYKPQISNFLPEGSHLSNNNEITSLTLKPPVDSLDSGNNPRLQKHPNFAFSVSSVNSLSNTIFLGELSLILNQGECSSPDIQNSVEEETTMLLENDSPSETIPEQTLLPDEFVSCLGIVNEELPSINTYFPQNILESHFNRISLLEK
Chain of human IL-23R-mouse Fc fusion protein (human; mouse) (Q5VWK5 24-353 L310P): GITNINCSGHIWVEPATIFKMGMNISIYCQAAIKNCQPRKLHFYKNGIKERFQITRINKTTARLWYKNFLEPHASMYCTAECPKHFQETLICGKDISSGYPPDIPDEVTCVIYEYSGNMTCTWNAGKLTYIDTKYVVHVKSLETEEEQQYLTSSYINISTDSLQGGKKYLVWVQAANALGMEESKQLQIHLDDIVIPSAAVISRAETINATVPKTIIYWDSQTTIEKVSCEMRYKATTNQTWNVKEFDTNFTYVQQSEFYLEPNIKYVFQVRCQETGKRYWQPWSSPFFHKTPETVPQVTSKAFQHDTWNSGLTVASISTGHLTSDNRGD

IC50, IL-23-stimulated STAT3 phosphorylation in CD4 lymphocytes of human whole blood (human IL-23R (human)): 0.01 µg/mL
IC50, inhibition of human IL-23-inducible Kit-225 cell proliferation (human IL-23R (human)): 0.055 µg/mL
EC50 [1]: 0.0485 µg/mL
EC50 [2]: > 10 µg/mL
B1: hum20D7 (antibody, from another filing, V domains shown)
VH: QVQLVQSGAEVKKPGASVKVSCKASGYTFTNYAMNWVRQAPGQGLEWMGWINTYTGEPTYSDDFKGRVTFTLDTSTSTAYMELRSLRSDDTAVYYCARGGGYDEDYFDYWGQGTLVTVSS
VL: DIVMTQSPLSLPVTPGEPASISCKSSQSLFNTINQKTYLAWYLQKPGQSPQLLIYFASTRESGVPDRFSGSGSGTDFTLKISRVEAEDVGVYYCQQHYDTPWTFGQGTKVEIKR
